Measurements taken from patent US20220040319A1 (Regeneron, published 2022).

B1: H4H14638D (bispecific antibody, human IgG4, V domains shown)
VH 1: QVQLVESGGGVVQPGRSLRLSCAASGFTFSNFGMHWVRQAPGKGLEWVAGIWFDGSNKNYIDSVKGRFTISRDNSKNTLYLQMNSLRAEDTAVYYCAREGYDSGTDYIPYDIFDIWGQGTMVTVSS
VH 2: EVQLVESGGGLVQPGGSLRLSCAASGFIVTTNYMTWLRQAPGKGLEWVSLIYSSGHTYYADSVKGRFTISRHNSKNTLYLQMDSLRAEDTAVYYCASAFAADVFDIWGQGTMVTVSS
VL: not shown
B2: H4H14641D (bispecific antibody, human IgG4, V domains shown)
VH 1: QVQLVESGGGVVQPGRSLRLSCSASGFSFSHFGMHWVRQVPGGGLEWVTSIWFDGSNRYYADSLKGRFTISRDNSKNTLYLEMNSLRAEDTAVYYCVREGILGTTNPYDVFDVWGQGTMVTVSS
VH 2: B1 VH 2
VL: not shown
B3: H4H13311P2 (antibody, human IgG4, V domains shown)
VH: QVQLVESGGGVVQPGRSLRLSCAASGFTFSSYAMHWVRQAPGRGLEWVAVIWHDGDVEYYVDSVKDRFTISRDNSKSTLYLQMNSLRAEDTALYYCAREAWDLLRPFDYWGQGTLVTVSS
VL: not shown
B4: H4H13309P2 (antibody, human IgG4, V domains shown)
VH: QVQLVQSGTEVKEPGASVKVSCKASGYSFTTYGISWLRQAPGQGLEWMGWISTYNGDTISAQMLQDRVTLTADTSTRTAYMELRSLRSDDTAVYYCARGHEYDSLVYSYWGQGTLVTVSS
VL: not shown
B5: H4H13300P2 (antibody, human IgG4, V domains shown)
VH: QVQLVESGGGVVQPGRSLRLSCAVSGFTFSSYGMHWVRQAPGKGLEWVANIWYDGTNDYYPYSVKGRFTISRDNSQNTLYLQMNSLRAEDTAVYYCAREDFINYRSFDYWGQGTLVTVSS
VL: not shown
B6: H4H13312P2 (antibody, human IgG4, V domains shown)
VH: B1 VH 2
VL: not shown
B7: H4H13290P2 (antibody, human IgG4, V domains shown)
VH: QVQLQESGPGLVKPSETLSLTCTVSGDSISSYYWTWIRQPPGKGLEWIGYIFYRGGTTYNPSLKSRVTISVDTSKNQFSLKLRSVTAADTAVYYCARGDDLLVVTSVYWYIDLWGRGTLVTVSS
VL: not shown
B8: H4H13318P2 (antibody, human IgG4, V domains shown)
VH: QVQLVESGGGVVQPGRSLRLSCVASGFSFSNFGMHWVRQAPGKGLEWVAIIWYDGSNKYYSDSVKGRFTISRDNSKNTLYLQMNSLRVDDTAVYYCARFDRWKFDAFDIWGQGTMVTVSS
VL: not shown
B9: H4H13331P2 (antibody, human IgG4, V domains shown)
VH: QVQLQESGPGLVKSSETLSLTCTVSGGSIRNFYWSWLRQPPGKGLEWIGHINYNGGTDYNPSLKSRVTISVDTSKNQFSLNLNSVTAADTAVYYCARQRFYGMDVWGPGTTVTVSS
VL: not shown
B10: H4H13299P2 (antibody, human IgG4, V domains shown)
VH: EVQLVESGGGLVQPGGSLRLSCAASGFIFSNYEMNWVRQAPGKGLEWISYITSSGNMKYYADSVKGRFTISRDNDKNSLYLQMSSLRVEDTAVYYCVRGGRFLEWLTYYVMVVWGQGTTVTVSS
VL: not shown
B11: H4H14634D (bispecific antibody, human IgG4, V domains shown)
VH 1: B7 VH
VH 2: B1 VH 2
VL: not shown
notes: MET x MET bispecific, expressed as human IgG4; also called bispecific antibody No. 10
B12: H4H14638D (bispecific antibody, human IgG4, V domains shown)
VH 1: B1 VH 1
VH 2: B1 VH 2
VL: not shown
notes: MET x MET bispecific, expressed as human IgG4
B13: H4H16448D (bispecific antibody, human IgG4, V domains shown)
VH 1: B8 VH
VH 2: B1 VH 2
VL: not shown
notes: MET x MET bispecific, expressed as human IgG4; also called bispecific antibody No. 219
B14: H4H16445D (bispecific antibody, human IgG4, V domains shown)
VH 1: QVQLVESGGGVVQPGGSLRLSCAASGFTFSGYGMHWVRQAPGKGLEWMAVIWYDGSNDYYPDSVKGRFTISRDNSKNTLYLQMNSLRVEDTAVYYCARDAWDLLRSFDYWGQGTLVTVSS
VH 2: B1 VH 2
VL: not shown
notes: MET x MET bispecific, expressed as human IgG4; also called bispecific antibody No. 26
B15: H4H14637D (bispecific antibody, human IgG4, V domains shown)
VH 1: QVQLVESGGGVVQPGTSLRLSCVASGFTFRNFGMHWVRQAPGKGLEWVANIWFDGSNENYVESIQGRFTISRDNSKNTLNLQMNSLRAEDSAVYYCVREGILGTTNPYDAFDVWGQGTMVTVSS
VH 2: B1 VH 2
VL: not shown
notes: MET x MET bispecific, expressed as human IgG4; also called bispecific antibody No. 90
B16: H4H16447D (bispecific antibody, human IgG4, V domains shown)
VH 1: B3 VH
VH 2: B1 VH 2
VL: not shown
notes: MET x MET bispecific, expressed as human IgG4; also called bispecific antibody No. 154
B17: H4H16449D (bispecific antibody, human IgG4, V domains shown)
VH 1: QVQLVESGGGVVQPGRSLRLSCAASGFTFSSFAMHWVRQAPGKGLEWVAVIWYDGSNDYYAASVKGRFTISRDNSKNTLYLEMNRLRAEDTAVYHCARDNWNYWGGMDVWGQGTTVTVSS
VH 2: B1 VH 2
VL: not shown
notes: as for B12
B18: H4H14635D (bispecific antibody, human IgG4, V domains shown)
VH 1: QVQLVESGGGVVQPGRSLRVSCVVSGFTFSSFGMHWVRQAPDKGLEWVAVIWYDGSNDYYSDSVKGRFTISRDNSKNTLFLQMNRLRAEDTAVYYCARANNWNRFDAFDLWGQGTMVTVSS
VH 2: B1 VH 2
VL: not shown
notes: MET x MET bispecific, expressed as human IgG4; also called bispecific antibody No. 42
B19: H4H16446D (bispecific antibody, human IgG4, V domains shown)
VH 1: B5 VH
VH 2: B1 VH 2
VL: not shown
notes: MET x MET bispecific, expressed as human IgG4; also called bispecific antibody No. 58
B20: H4H14641D (bispecific antibody, human IgG4, V domains shown)
VH 1: B2 VH 1
VH 2: B1 VH 2
VL: not shown
notes: as for B12
B21: H4H14636D (bispecific antibody, human IgG4, V domains shown)
VH 1: B10 VH
VH 2: B1 VH 2
VL: not shown
notes: MET x MET bispecific, expressed as human IgG4; also called bispecific antibody No. 74
B22: H4H14640D (bispecific antibody, human IgG4, V domains shown)
VH 1: B4 VH
VH 2: B1 VH 2
VL: not shown
notes: MET x MET bispecific, expressed as human IgG4; also called bispecific antibody No. 138

Each binder was assayed against T1, human MET on cells (human, UniProt P08581 25-1390) (assay: cell-based or functional assay).
Throughout, for % Inhibition, HEK293/SRE-Luc Blocking Activity (HGF, 1 h mAb pre-bind): test concentration or dose not given here.

T1 sequence (P08581 25-1390 limits assumed, form in doubt): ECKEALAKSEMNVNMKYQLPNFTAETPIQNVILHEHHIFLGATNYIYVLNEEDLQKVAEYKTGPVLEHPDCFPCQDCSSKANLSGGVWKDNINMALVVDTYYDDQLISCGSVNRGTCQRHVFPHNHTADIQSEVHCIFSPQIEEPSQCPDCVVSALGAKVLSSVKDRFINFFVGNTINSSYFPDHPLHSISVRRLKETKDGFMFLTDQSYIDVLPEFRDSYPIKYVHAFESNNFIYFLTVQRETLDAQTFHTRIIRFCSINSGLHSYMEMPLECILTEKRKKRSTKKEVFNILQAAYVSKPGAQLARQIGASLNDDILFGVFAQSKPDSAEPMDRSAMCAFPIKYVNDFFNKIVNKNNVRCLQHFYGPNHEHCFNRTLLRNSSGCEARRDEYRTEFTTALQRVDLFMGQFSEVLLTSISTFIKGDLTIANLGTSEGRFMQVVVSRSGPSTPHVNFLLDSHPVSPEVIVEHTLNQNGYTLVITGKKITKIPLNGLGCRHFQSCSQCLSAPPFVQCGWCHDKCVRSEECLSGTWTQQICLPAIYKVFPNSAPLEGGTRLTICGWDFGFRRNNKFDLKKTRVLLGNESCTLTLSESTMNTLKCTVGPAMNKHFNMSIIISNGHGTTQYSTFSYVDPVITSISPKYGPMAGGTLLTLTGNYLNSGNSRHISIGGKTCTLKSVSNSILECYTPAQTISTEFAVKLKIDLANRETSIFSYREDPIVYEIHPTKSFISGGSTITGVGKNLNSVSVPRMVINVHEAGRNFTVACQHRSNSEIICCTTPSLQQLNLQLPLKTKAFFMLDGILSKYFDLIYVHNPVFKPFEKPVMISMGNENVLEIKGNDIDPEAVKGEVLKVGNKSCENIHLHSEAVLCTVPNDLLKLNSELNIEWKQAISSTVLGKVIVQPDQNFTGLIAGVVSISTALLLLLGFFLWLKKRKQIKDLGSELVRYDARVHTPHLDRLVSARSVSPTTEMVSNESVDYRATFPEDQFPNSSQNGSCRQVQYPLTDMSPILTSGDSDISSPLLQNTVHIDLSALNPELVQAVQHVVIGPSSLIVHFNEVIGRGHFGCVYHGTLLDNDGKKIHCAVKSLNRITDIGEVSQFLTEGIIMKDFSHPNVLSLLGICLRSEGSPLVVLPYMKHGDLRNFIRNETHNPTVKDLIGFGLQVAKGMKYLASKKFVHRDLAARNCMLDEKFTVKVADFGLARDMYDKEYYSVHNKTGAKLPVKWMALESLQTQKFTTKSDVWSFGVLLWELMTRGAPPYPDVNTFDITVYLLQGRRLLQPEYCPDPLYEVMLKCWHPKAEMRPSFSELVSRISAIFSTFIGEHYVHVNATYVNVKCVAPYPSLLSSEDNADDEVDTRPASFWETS

Binder | Relative MET Level, SNU5 cells, 18 hrs
B1 | 0.35 relative to control (hFc)
B2 | 0.31 relative to control (hFc)

Biological target: T1, human MET on cells
Test: cell-based or functional assay
Remark: another data set of the same source

Binder | % Inhibition, HEK293/SRE-Luc Blocking Activity (HGF, 1 h mAb pre-bind) | EC50, Ligand (HGF)-Independent HEK293/SRE-Luc Activation | Fold Response, Ligand (HGF)-Independent HEK293/SRE-Luc Activation | IC50, HEK293/SRE-Luc Blocking Activity (HGF, 1 h mAb pre-bind)
B3 | 62% | 0.3 nM | 5.2 fold | 0.035 nM
B4 | 77% | 0.39 nM | 9.2 fold | 0.2 nM
B5 | 69% | 0.48 nM | 2.8 fold | 0.12 nM
B1 | 79% | 5.9 nM | 2.6 fold | 1.1 nM
B2 | 75% | 84 nM | 4.4 fold | 2.7 nM
B6 | 48% | 0.12 nM |  | 
B7 | 56% | < 0.002 nM | 9.8 fold | < 0.002 nM
B8 | 77% |  | 3.1 fold | 0.1 nM
B9 | 75% | 0.0023 nM | 7.1 fold | < 0.01 nM
B10 | 51% | 0.0037 nM | 14.4 fold | 

The binders below were run against T2, hMet.mmh (human MET extracellular domain with C-terminal myc-myc-hexahistidine tag) (human, UniProt P08581 309-914; P08581 27-307) (assay: SPR 37C, antibody captured).
T2 construct: soluble monomeric MET; also called monomeric human MET
Description: Kinetic association (kₐ) and dissociation (kd) rate constants were determined as described in Example 3.

T2 sequence (P08581 other isoform, or with tags, fused parts or gaps limits assumed, chain 1 of 2): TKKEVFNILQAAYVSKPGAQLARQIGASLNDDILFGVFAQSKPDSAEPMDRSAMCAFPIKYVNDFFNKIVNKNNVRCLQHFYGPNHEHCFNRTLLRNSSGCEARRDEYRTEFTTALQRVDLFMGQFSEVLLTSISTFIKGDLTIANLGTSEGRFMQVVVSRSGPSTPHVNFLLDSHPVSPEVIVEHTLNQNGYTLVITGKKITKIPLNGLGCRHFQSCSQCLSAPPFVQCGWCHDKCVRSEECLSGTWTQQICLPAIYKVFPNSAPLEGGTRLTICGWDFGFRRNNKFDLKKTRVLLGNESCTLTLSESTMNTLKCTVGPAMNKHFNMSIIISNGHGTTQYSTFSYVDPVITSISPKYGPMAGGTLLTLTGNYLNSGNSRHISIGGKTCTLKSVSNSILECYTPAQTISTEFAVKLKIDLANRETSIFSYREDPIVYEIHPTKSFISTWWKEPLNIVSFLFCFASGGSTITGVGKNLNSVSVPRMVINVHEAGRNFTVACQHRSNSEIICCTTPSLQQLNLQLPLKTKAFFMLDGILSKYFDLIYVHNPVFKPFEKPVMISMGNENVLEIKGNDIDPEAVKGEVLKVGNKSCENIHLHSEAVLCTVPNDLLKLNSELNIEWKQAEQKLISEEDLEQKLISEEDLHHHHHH
T2 sequence (P08581 27-307 limits assumed, chain 2 of 2): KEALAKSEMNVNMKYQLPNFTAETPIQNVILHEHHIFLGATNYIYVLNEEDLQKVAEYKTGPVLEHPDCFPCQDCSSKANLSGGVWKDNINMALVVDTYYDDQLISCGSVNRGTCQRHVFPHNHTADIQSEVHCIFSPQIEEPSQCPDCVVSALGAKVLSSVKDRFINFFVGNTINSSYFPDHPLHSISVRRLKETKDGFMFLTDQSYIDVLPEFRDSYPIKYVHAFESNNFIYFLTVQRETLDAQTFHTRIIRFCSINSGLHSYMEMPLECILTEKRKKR

Binder | T½ | koff
B11 | ≥ 1160 min | ≤ 1e-05 s⁻¹
B12 | 70.2 min | 0.000165 s⁻¹
B13 | 19.5 min | 0.000592 s⁻¹
B14 | 29.4 min | 0.000393 s⁻¹
B15 | 35.4 min | 0.000326 s⁻¹
B16 | 13.6 min | 
B17 | 39.3 min | 0.000294 s⁻¹
B18 | 141 min | 8.21e-05 s⁻¹
B19 | 112 min | 0.000103 s⁻¹
B20 | 35.3 min | 0.000327 s⁻¹
B21 | ≥ 1160 min | ≤ 1e-05 s⁻¹
B22 | ≥ 1160 min | ≤ 1e-05 s⁻¹

Biological target: T1, human MET on cells
Test: cell-based or functional assay
Remark: another data set of the same source

Binder | IC50, 6-day in vitro cytotoxicity, A549 | IC50, 6-day in vitro cytotoxicity, EBC-1 | IC50, 6-day in vitro cytotoxicity, Hs746t | Max % Kill, 6-day in vitro cytotoxicity, A549 | Max % Kill, 6-day in vitro cytotoxicity, EBC-1 | Max % Kill, 6-day in vitro cytotoxicity, Hs746t
B6 | > 100 nM | > 100 nM | > 100 nM | 7% | 30% | 0%

Biological target: T1, human MET on cells
Test: cell-based or functional assay
Remark: another data set of the same source

Binder | % Growth Inhibition, SNU5 cells | IC50, SNU5 growth
B3 | 8% | 
B4 | 22% | 0.1 nM
B5 | 16% | 
B6 | 69% | 0.78 nM
B7 | 12% | 
B8 | 18% | 0.051 nM
B9 | 5% | 
B10 | -8% | 
